3 molecules from paper PMC11978871, “PACT prevents aberrant activation of PKR by endogenous dsRNA without sequestration” (Nature Communications, 2024) can be followed below.

Series [1] addresses T1, PKR K296R (UniProt P19525 1-551, K296R). As to the kind of experiment: SEC-MALS; 3 PKR per dsRNA; EMSA: 20 mM HEPES pH 7.5, 150 mM NaCl, 2 mM DTT, RT 15 min, 0.2 ng/ul 32P-112 bp dsRNA, 0-4000 nM protein, Bis-Tris native PAGE; smFRET buffer not in material. Conditions: protein: recombinant; tags: pET29b; Cy5-labeled in smFRET; blunt. (In gel filtration, larger molecules generally elute earlier.)

Series [2] concerns the molecule itself. As to the kind of experiment: NMR structure; PACT D3 in 20 mM HEPES pH 7.5, 50 mM KCl, 2 mM DTT, 30 °C; inter-chain NOEs from a mixed-isotope sample (0.4 mM each protomer).
Series [3] concerns the target T1, PKR K296R. As to the kind of experiment: SEC-MALS; 4 PKR per dsRNA; EMSA: 20 mM HEPES pH 7.5, 150 mM NaCl, 2 mM DTT, RT 15 min, 0.2 ng/ul 32P-112 bp dsRNA, 0-4000 nM protein, Bis-Tris native PAGE; smFRET buffer not in material. Conditions: protein: recombinant; tags: pET29b; Cy5-labeled in smFRET; blunt.

T1 sequence (P19525 whole entry K296R): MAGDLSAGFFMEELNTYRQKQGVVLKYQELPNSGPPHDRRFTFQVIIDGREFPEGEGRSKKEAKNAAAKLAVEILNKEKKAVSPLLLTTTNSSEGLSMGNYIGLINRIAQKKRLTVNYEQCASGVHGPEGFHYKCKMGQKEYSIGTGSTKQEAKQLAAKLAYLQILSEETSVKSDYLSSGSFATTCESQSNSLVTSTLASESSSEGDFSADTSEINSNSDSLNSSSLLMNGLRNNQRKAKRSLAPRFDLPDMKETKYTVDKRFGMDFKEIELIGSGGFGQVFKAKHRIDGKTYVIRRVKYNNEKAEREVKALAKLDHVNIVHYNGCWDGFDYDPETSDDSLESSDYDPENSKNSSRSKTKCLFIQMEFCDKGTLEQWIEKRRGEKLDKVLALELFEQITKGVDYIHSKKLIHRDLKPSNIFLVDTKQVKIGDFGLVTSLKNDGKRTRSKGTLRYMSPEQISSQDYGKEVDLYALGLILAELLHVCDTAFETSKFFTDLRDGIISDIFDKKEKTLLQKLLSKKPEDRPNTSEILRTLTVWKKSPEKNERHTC

B1: 42 bp dsRNA (dsRNA)
RNA 1: GGGAGAAUGUCGAAUGGGUAUUCCACAGACGAGAAUUCUCCC
RNA 2: GGGAGAAUUCUCGUCUGUGGAAUACCCAUUCGACAUUCUCCC
Turning to B1, in series [1], the binding result is listed as “binds”.

B2: PACT DRBD3 (residues 235-313) (domain or fragment, UniProt O75569 235-313, looked up)
chain: SIPNTDYIQLLSEIAKEQGFNITYLDIDELSANGQYQCLAELSTSPITVCHGSGISCGNAQSDAAHNALQYLKIIAERK
modifications: isotope-labelled (15N, 13C, ~85% 2H; for the mixed sample 15N,2H-labelled and 13C-labelled protomers)
notes: PACT DRBD3, residues 235-313, in pET47b between BamHI and SalI; Homodimer in the NMR structure; also called PACT D3; source: E. coli BL21(DE3) in M9 minimal media, purified (Ni-NTA, SEC)
What is called stoichiometry N is the number of molecules, sites or subunits per partner or assembly. As to B2, the “stoichiometry N” value in series [2] amounted to 2.

B3: 62 bp dsRNA (dsRNA)
RNA 1: GGGAGAAUGUCGAAUGGGUAUUCCACAGACGAGAAUUUCCGCUAUCUCAUCUCGUGUCUCCC
RNA 2: GGGAGACACGAGAUGAGAUAGCGGAAAUUCUCGUCUGUGGAAUACCCAUUCGACAUUCUCCC
Take B3: the binding result in series [3] is on record as “binds”.
